In assay [1] the target is PD-L1 extracellular domain (PD-L1-ECD) (UniProt Q9NZQ7). Kind of assay: SPR. To be noted: bispecific antibody.
In assay [2] the target is human CD47 extracellular domain (CD47-ECD) (human) (UniProt Q08722). Kind of assay: SPR. To be noted: bispecific antibody.
Assay [3] has as its target T1, human CD47 extracellular domain (CD47-ECD) (human, UniProt Q08722, N-linked glycosylation observed at all five potential sites in the complex structure (N32 and N55 among them)).
T1 construct: CD47, human, extracellular domain; also called WT CD47-ECD; human CD47-ECD antigen
As to the kind of experiment: SPR; h4C1 and CD47-ECD proteins (WT, N32A, N55A); who was immobilised and the conditions are not given. To be noted: both partners purified. On the technique in general: SPR reads the build-up and loss of mass on a sensor chip optically.

For two molecules, Kd results are on record in article PMC7058617 (Signal Transduction and Targeted Therapy, 2020).

Chain of human CD47 extracellular domain (CD47-ECD) (human) (Q08722 19-141): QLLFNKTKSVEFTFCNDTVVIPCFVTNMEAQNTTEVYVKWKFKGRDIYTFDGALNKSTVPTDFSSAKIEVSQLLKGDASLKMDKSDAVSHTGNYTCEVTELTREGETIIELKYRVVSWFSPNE
T1 sequence (Q08722 19-141): as above
Chain of PD-L1 extracellular domain (PD-L1-ECD) (Q9NZQ7 19-238): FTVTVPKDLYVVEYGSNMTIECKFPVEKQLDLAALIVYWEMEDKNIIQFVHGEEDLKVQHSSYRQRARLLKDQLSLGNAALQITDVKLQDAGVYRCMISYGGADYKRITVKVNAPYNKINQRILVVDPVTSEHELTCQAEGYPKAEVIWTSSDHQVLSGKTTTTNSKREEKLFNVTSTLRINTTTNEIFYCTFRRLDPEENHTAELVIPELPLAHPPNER

The Kd is a measure of binding affinity in units of concentration. With “CD47/PD-L1 dual-targeting bispecific antibody (DVD-Ig format) (from UniProt P01861)”, the Kd in assay [1] was 0.74 nM; in assay [2], 17.4 nM.

B1: Humanized 4C1 (h4C1) monoclonal antibody (antibody, V domains shown)
VH: QVQLVQSGAEVKKPGASVKVSCKASGYTFTSYVMHWVRQAPGQRLEWMGYINPYNDGTKYNEKFKGKATLTSDKSTSTAYMELSSLRSEDTAVYYCARTEGHFYVSWFAYWGQGTLVTVSS
VL: DIQMTQSPSSLSASVGDRVTISCRTSQDISNYLNWYQQKPGKAPKLLIYYTSRLHSGVPSRFSGSGSGTDYTFTISSLQPEDIATYYCQQGNTLPFTFGQGTKLEIK
notes: Humanised from the murine mAb m4C1 (raised in mice immunised with human CD47); also called h4C1 mAb
Take B1: the Kd in assay [3] came to 0.85 nM.
